The text below walks through data of patent US20250092127A1 (Regeneron, published 2025).

For the test, the target named is T1, mouse IL-4R (mouse, UniProt P16382 26-233, limits assumed).
T1 sequence (looked up): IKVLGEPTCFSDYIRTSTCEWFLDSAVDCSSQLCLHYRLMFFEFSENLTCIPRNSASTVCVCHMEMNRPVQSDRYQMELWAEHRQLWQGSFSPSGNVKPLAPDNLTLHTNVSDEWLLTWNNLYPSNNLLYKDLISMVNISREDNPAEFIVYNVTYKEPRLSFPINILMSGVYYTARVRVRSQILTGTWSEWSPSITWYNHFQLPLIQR
As to the kind of experiment: cell-based or functional assay.

B1: REGN1103 (antibody, V domains shown)
VH: EVQLQQSGPELVKPGASVRMSCKASGYTFTDYNIHWVKQSHGKSLEWIGYIYPNNGDNGYNQKFRGKATLTVDKSSSTAYMELRSLTSDDSAVYYCARGRLRYFDVWGTGTTVTVSS
VL: NIVLTQSPASLAVSLGQRATISCRASESVDNYGHSFMHWYQQKPGQPPKLLIYLASNLESGVPARFSGSGSRTDFTLTLDPVEADDAATYYCQQYNEDPPTFGSGTKLEIK
As for B1, the “IC50 of inhibition of IL-4-dependent proliferation of cell lines” value amounted to 1.9 nM and the “IC50 of inhibition of IL-13-dependent proliferation of cell lines” value turned out to be 0.011 nM.
